Source: patent US5834244, “Factor VIIa inhibitors from Kunitz domain proteins” (Genentech, Inc., dated 1998)
No end group written: not given here.

T1: human Factor XIIa (human, UniProt P00748)
T1 sequence 1: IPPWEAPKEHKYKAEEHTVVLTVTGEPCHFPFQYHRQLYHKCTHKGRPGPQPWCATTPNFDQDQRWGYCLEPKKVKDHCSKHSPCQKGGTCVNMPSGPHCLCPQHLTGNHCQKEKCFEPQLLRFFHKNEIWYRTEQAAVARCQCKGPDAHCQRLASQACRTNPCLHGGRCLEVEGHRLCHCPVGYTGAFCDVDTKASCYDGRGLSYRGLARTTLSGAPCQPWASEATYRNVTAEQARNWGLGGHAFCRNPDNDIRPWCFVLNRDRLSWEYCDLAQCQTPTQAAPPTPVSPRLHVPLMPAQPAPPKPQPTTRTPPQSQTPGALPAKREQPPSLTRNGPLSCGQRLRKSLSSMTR
T1 sequence 2: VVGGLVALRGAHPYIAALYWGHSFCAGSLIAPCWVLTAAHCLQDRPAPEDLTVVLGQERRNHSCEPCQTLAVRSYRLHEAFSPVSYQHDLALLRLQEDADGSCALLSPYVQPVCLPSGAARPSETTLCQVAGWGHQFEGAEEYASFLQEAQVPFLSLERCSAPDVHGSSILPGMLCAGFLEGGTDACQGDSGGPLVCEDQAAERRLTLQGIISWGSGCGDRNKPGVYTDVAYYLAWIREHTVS


Tests used:
[1] = target: TF-FVIIa complex in the PT assay (full length TF on 293 cell membranes with the Factor VII/VIIa of normal … (human, UniProt P08709)); experiment: cell-based or functional assay
human Factor Xa = human Factor Xa (human, UniProt P00742); experiment: chromogenic enzyme inhibition assay, apparent Ki*
human thrombin = human thrombin (human, UniProt P00734); experiment: chromogenic enzyme inhibition assay, apparent Ki*
[2] = target: human activated protein C (human, UniProt P04070); experiment: chromogenic enzyme inhibition assay, apparent Ki*
human Factor XIIa = target: T1, human Factor XIIa; experiment: chromogenic enzyme inhibition assay, apparent Ki*
human plasma kallikrein = human plasma kallikrein (human, UniProt P03952); experiment: chromogenic enzyme inhibition assay, apparent Ki* (value in FIG. 4)
Protocol: (§1) Aliquots (25 μL) from each well of a microtiter plate containing the serially diluted inhibitors were transferred into new microtiter plates, each containing a different protease (100 μL) in the appropriate buffer. The proteases tested (protease concentration, buffer, substrate) were FVIIa (10 nM, Buffer A, 0.7 mM S2366), FXIa (1.0 nM, Buffer B containing 1 mg/ml BSA, 0.7 mM S2366), plasma kallikrein (3.5 nM, Buffer B, 0.5 mM S2302), and plasmin (15 nM, Buffer B, 1 mM S2251). Buffer A contains 50 mM Tris, pH 7.5, 100 mM NaCl, 10 mM CaCl_2, 0.5% BSA, 60 nM TF_1-243, and 1 mM CHAPS (Sigma). Buffer B contains 50 mM Tris, pH 7.5, 100 mM NaCl, 2 mM CaCl_2 and 0.005% Triton X-100.

human plasmin = human plasmin (human, UniProt P00747); experiment: chromogenic enzyme inhibition assay (plasmin 15 nM, S2251), apparent Ki*
Protocol: as §1

| Binder | fold prolongation of clotting time, PT assay in normal human plasma [1] | binding result [2] | binding result (human Factor XIIa) | also measured |
| --- | --- | --- | --- | --- |
| IV-32B (designed binder) VREVCSEQAEPGPCKALMKRWYFDVTEGKCAPFYYGGCYGNRNNFDTEEYCAAVCGSA | 1.4 fold prolongation at 40 µM inhibitor |  |  |  |
| APPI, Alzheimer's amyloid β-protein precursor inhibitor (other, not fully specified (bridges); ends and bridges not checked) VREVCSEQAETGPCRAMISRWYFDVTEGKCAPFFYGGCGGNRNNFDTEEYCMAVCGSA | 1.5 fold prolongation at 40 µM inhibitor | no binding (tested: >10 µM) | no binding (tested: >10 µM) | Ki (human Factor Xa): > 10 µM; binding result (human Factor Xa): no binding (tested: >10 µM); Ki (human thrombin): > 10 µM; binding result (human thrombin): no binding (tested: >10 µM); Ki [2]: > 10 µM; Ki (human Factor XIIa): > 10 µM |
| IV-54C (designed binder) VREVCSEQAEPGPCRALMKRWYFDVTEGKCAPFVYGGCYGNRNNFDTEEYCAAVCGSA | 2.1 fold prolongation at 40 µM inhibitor |  |  |  |
| IV-49C (designed binder) VREVCSEQAEPGPCRALMKRWYFDVTEGKCAPFIYGGCYGNRNNFDTEEYCAAVCGSA | 2.5 fold prolongation at 40 µM inhibitor |  |  |  |
| TF7I-C (designed binder, ends and bridges not checked; cysteine pairing not given here) VREVCSEQAEPGPCRALILRWYFDVTEGKCAPFFYGGCYGNRNNFDTEEYCAAVCGSA |  | no binding (tested: >10 µM) | no binding (tested: >10 µM) | binding result (human plasma kallikrein): binds; Ki (human plasmin): 40 nM |
